From publication PMC2819048
Numbering of substitutions follows the chain as printed.

Experiments:
Test in all cases: SPR
DnaC R216A = molecular target: T1, DnaC R216A (Escherichia coli, UniProt P0AEF0 1-245, R216A)
T1 sequence: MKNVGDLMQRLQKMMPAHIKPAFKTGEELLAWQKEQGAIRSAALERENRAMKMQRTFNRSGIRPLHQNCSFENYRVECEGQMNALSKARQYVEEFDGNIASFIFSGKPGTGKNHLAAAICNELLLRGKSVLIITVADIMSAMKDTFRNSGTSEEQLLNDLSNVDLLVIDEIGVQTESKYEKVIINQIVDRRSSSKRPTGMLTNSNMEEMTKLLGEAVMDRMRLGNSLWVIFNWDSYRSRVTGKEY

DnaC R220A = molecular target: T2, DnaC R220A (Escherichia coli, UniProt P0AEF0 1-245, R220A)
T2 sequence: T1 sequence with A216R, R220A

DnaC = molecular target: T3, DnaC (Escherichia coli, UniProt P0AEF0 1-245)
T3 sequence: T1 sequence with A216R

CATCCAATAAATCATACACAAGGC (ssDNA) [5'-biotinylated oligonucleotide]
binding result (DnaC R216A): binds
binding signal (DnaC R220A): 1.7 fold stronger than without ATP
binding signal (DnaC): ~2.4 fold stronger than without ATP
